According to patent publication EP4524159A1, “ANTIBODY AND USE THEREOF” (Sichuan Huiyu Pharmaceutical Co., Ltd., priority 2022, dated 2023):
Numbering of substitutions follows the chain as printed. Square brackets hold non-standard residues; d marks the D form. Peptide text beside a SMILES is read from it. * marks the point of attachment. Dolaproine = CO[C@@H]([C@@H]1CCCN1)[C@@H](C)C(=O)O; Dil = CC[C@H](C)[C@H](NC)[C@@H](CC(=O)O)OC; X1 = C[C@@H](N*)[C@@H](O)c1ccccc1; NMeV = CN[C@H](C(=O)O)C(C)C

T1: HuCDCP1-B (human) (UniProt Q9H5V8)
T1 sequence (looked up): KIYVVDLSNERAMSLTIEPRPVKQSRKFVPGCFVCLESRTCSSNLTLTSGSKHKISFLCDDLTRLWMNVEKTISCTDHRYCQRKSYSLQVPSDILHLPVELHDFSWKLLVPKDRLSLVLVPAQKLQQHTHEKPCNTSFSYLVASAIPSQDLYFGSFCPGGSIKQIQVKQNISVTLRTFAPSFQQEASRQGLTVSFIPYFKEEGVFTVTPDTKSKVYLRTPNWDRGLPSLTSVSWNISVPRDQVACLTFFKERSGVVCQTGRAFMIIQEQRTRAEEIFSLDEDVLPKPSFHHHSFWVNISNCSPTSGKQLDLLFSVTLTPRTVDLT

B1: SB4 (antibody, V domains shown)
VH: QVQLQQSGAELVRPGTSVKISCKASGYTFTNYWLGWVKQRPGHGLEWIGDNYPGDNYRNFNEKFKGKATLTTDASSSTAYLQLSSLISEDSAVYFCTRSGGSRYYTMDYWGQGTSVTVSS
VL: DIVMTQAAFSNPVTLGTSASISCRSSRSLLHNNGITYLYWYLQKPGQSPQLLIYQMSNLASGVPDRFHSSGSGTDFTLSISRVEAEDVGVYYCAQNLDLPYTFGGGTKLEIK
B2: SB5 (antibody, V domains shown)
VH: QVQLRESGPGLVAPSQSLSITCTVSGFSLTDFGVNWVRQPPGKGLEWLGIIWANGRIEYNSALKSRLSISKDNSRSQVFLKLNSLQTDDTARYYCARDHDYDVEAMDYWGQGTSVTVSA
VL: QIVLTQSPAIKSASPGEKVTMTCSASSSVIYMHWYQQKSGSSPKRWIYDTSKLASGVPVRFSGSGSGTSYSLTISTMEAEDAATYYCQQWSSYPPTFGGGTKVEIK
B3: 6A7-MMAE (conjugate)
VH: EVQLKESGAELVRPGASVKVSCKASGYSFTSYWMNWVKQRPGQGLEWIGMIHPSDSETKLNQKFRDRASLTVDKSSSTAYMQLSSPTSEDSAVYYCTINYESFYYAMDYWGQGTTVTVSS
VL: DIVMTQSPASLAVSLGQRATISCRASKSVSTSGYSYMHWYQQKPGQPPKLLLYLASNLESGVPARFSGSGSGADFTLNIHPVEEEDAATYYCLHSRELPYTFGGGTKLEIK
B4: 8E5-MMAE (conjugate)
VH: EVQLKESGPELKKPGETVKISCKASGYTLTDFSMHWLKQAPGKGLKWMGWINTETGAPTYADDFKGRFALSLDTSANTAYLQINNLKNEDTATYFCSRGRDYDPHFDYWGQGTTVTVSS
VL: EIVLTQSPATLSVTPGDRVSLSCRASQSISDFLHWYQQRSHESPRLLIKYASQSISGIPSRFGGSGSGSDFTLNINTVEPEDVGMYYCQSAHSFPYTFGGGTKLEIK
B5: SB7 (antibody, V domains shown)
VH: QVQLQQSGPELVSPGESVKISCKGSGYTFTDYAVHWVKQSHSKSLEWIGVKSVYYGITKYSQNFKDKATMTVDKSSSTAYMELARLTSEDSAIYYCARDSYGSSRGYFDYWGQGTTLTVSS
VL: DIKMTQSPSSIYVSPGERVTITCKASQDINSFLSWFQQKPGKSPKTLIYRANRLVDGVPSRFSGSGSGQDYSLTISSLEYEDMGIYYCLQYDEFPRTFGGGTKLEIK
B6: G10F6-MMAE (conjugate)
VH: EVKLVESGPGILQPSQTLSLTCSFSGFSLSTSGMGVSWVRQPSGKGLEWLAHIYWDDDKRYNPSLKGRLTISKDTPRNQVFLEITSVDTTDTATYYCARVPGNWDEDAMDYWGQGTTVTVSS
VL: DIQMTQSPLSLPVSLGDQASISCRSSQNIVHTNGNTYLEWYLQKVGQSPKLLIYKVSNRFSGVPDRFSGSGSGTDFTLKISRVEAEDLGVYYCFQGSHVPYTFGGGTKLEIK
B7: 10D2-MMAE (conjugate)
VH: EVQLQQSGPELKKPGETVKISCKASGYTFTDYSMHWVKQAPGKGLKWMGWINTETGQPTYADDFKGRFAFSLETSASSAYLQINNLKNEDTATYFCTRTFYYDYVGDYWGQGTTVTVSS
VL: DIVMTQSHKFMSTSVGDRVSITCKASQDVSTAVAWYRQKPGQSPKLLIYWASTRHTGVPDRLTGSGSGTDFALTINSVQAEDLALYYCQQHSSTPYTFGGGTKLEIK
B8: SB1 (antibody, V domains shown)
VH: QVQLQQSGPDLVRPGESVKISCKGSGYTFTDHAIHWVRQSHAKSLEWIGVISFSYDNTKYNQNFKGKATMTVDKSSNTAYMELARLTSEDSAIYYCARDCYGSNRGYFDYWGQGTTLTVSS
VL: DIRMTQSPSSMYASLGERVTITCKASQDINRFLSWFLQRPGKAPKTLIYRANNLVEGVPSRFSGSGSGQDYSLIISNLEYEDMGIYYCLQYDEFPRTFGGGTKLEIK
B9: 3C11-MMAE (conjugate)
VH: EVQLQQSGTVLARPGASVKMSCKASGYNFISYWLHWIKQRPGQGLEWIGGIYPGNTDTTYNQKFKGKAKVTAVTSATTAYMELSSLTNEDSAVYYCIRYDYDRGMDYWGQGTTVTVSS
VL: DIQMTQSPSSFSVSLGDRVTITCRASEDIYYRLAWYQQKPGNAPRLLISGATALETGVPSRFSGSGSGKDYTLSITSLQTEDVATYYCQHYWNIPWTFGGGTKLEIK
B10: 3B 12H5-MMAE (conjugate)
VH: EVQLQQSGTVLARPGASVKMSCKASGYSFTIYWVHWVKQRPGQGLEWIGAVYPGNDDTSYNQNFKGKAKLTAVTSATTAYMELSSLTIDDSAVYYCTRHTYDEVFDYWGQGTTVTVSS
VL: B9 VL with Q3V, F11L, R24K, A51G, A53N, T56A, V58I, T85I, I94T
B11: SB6 (antibody, V domains shown)
VH: QGQMQQSGAELVKPGASVKLSCKTSGFTFNSSYITWLKQKPGQSLEWIAWIFAGTGGTYYNEKFTDKAQLTVDTTSSTAYMQFSSLTTEDSAIYYCARHGLGYDYWGQGTTLTVSS
VL: SIVMTQTPKFLLVSAGDRVTITCKASQSVNTDVAWYQQKSGQSPKLLIYSASNRYTGVPDRFTGSGYGTDFTFTISTVQAEDLAVYFCQQDHSSPPWTFGGGTKLEIK

Legend:
MCF7 [1] = test: In vitro killing by chimeric antibody-vc-MMAE conjugate (CellTiter-Glo, 120 h); assay type: cell-based; details: MCF7 (120 h), cells that do not express CDCP1
Method: (§1) The specific steps were: Colorectal cancer cells HCT116, breast cancer cells MDA-MB-231, prostate cancer cells PC3, MCF7 cells were respectively counted, adjusted to 3000 cells/well, and plated onto 96-well plates overnight; Conjugates were added at a final concentration of 8 nM to 0.000512 nM (a 5-fold dilution across 7 concentration points), totaling 200 µL, cultured at 37 °C in a CO2 incubator for 120 h, half of the medium (100 µL) was discarded, and 100 µL of CellTiter-Glo Luminescent Cell Viability assay reagent (Promega, cat # G7570) was added to detect signal values on a BMG microplate reader. The inhibition activity of antibody on tumor cell growth was calculated by graphpad fitting based on the signal value and antibody concentration, and the results are shown in FIG. 5 and Table 15. Table 15 IC50 value of anti-CDCP1 chimeric antibody -vcMMAE conjugate on tumor cells

MDA-MB-231 = test: as above; assay type: cell-based; details: MDA-MB-231 (120 h)
Method: as §1

HCT116 [2] = test: as above; assay type: cell-based
Method: as §1

HCC1806 = test: In vitro killing by humanized antibody-vc-MMAE conjugate (CellTiter-Glo, 120 h); assay type: cell-based
Method: (§2) The colorectal cancer cells HCT116 and breast cancer cells HCC1806 were counted separately, adjusted to 3000 cells/well and plated in 96-well plates overnight. Conjugates were added at a final concentration of 200 nM to 0.000512 nM (a 5-fold dilution across 9 concentration points), totaling 200 µL, cultured at 37°C in a CO2 incubator for 120 h, half of the medium (100 µL) was discarded, and 100 µL of CellTiter-Glo Luminescent Cell Viability assay reagent (Promega, cat # G7570) was added to detect signal values on a BMG microplate reader. The inhibition activity of antibody on tumor cell growth was calculated by graphpad fitting based on the signal value and antibody concentration, and the results are shown in FIGS. 6a and 6b and Tables 19 and 20. Table 19 DAR value of anti-CDCP1 humanized antibody-vc-MMAE conjugate and its IC50 value for HCC1806

HCT116 [3] = test: as above; assay type: cell-based
Method: as §2

PC3 = test: In vitro killing by chimeric antibody-vc-MMAE conjugate (CellTiter-Glo, 120 h); assay type: cell-based; details: PC3 (120 h)
Method: as §1, with “[…],” for “cultured at 37 °C in a CO2 incubator for 120 h,”

HuCDCP1-C (human) = HuCDCP1-C (human) (UniProt Q9H5V8); test: ELISA, HuCDCP1-C coated 2 ug/ml
HuCDCP1-B (human) = molecular target: T1, HuCDCP1-B (human); test: ELISA, HuCDCP1-B coated 2 ug/ml
[4] = Drug : antibody ratio (DAR) of antibody-vc-MMAE conjugates by hydrophobic HPLC; details: for DAR: chimeric antibody-vc-MMAE conjugates; for DAR2 (%): share of DAR2 species; for DAR4 (%): share of DAR4 species; for DAR6 (%): share of DAR6 species; for DAR8 (%): share of DAR8 species
Method: The specific operation was to reduce each antibody and the control antibody CD27H10 (27H10 antibody in WO2018112334A1) with a 2-fold molar amount of […] (TECP) at 4 °C for 1 hour. A 7-fold molar amount of vcMMAE was then added for ligation at 4-25 °C for 1 h, and then the reaction mixture was dialyzed against 1 × PBS pH 8.0 and filtered for sterilization. Drug : antibody ratio (DAR) was detected by hydrophobic kurtosis with HLPC, and the molecular coupling results are shown in Table 14. Table 14 DAR values of antibody-drug conjugates
The humanized antibodies 1CP-125, 1CP-117 and 1CP-152 were subjected to linking to form ADC, and the linking process was the same as in example 18. Table 18 DAR values of antibody-drug conjugates

MCF7 [5] = test: In vitro killing by chimeric antibody-vc-MMAE conjugate (CellTiter-Glo, 120 h); assay type: cell-based; details: MCF7 (120 h), cells that do not express CDCP1; remark: listed apart in the source
Method: The inhibition activity of antibody on tumor cell growth was calculated by graphpad fitting based on the signal value and antibody concentration, and the results are shown in FIG. 5 and Table 15. Table 15 IC50 value of anti-CDCP1 chimeric antibody -vcMMAE conjugate on tumor cells

Molecule	ELISA (HuCDCP1-C (human)) [nM]	DAR [4]	DAR2 (%) [4] [%]	DAR4 (%) [4] [%]	DAR6 (%) [4] [%]	DAR8 (%) [4] [%]	other results
CC[C@H](C)[C@@H]([C@@H](CC(=O)N1CCC[C@H]1[C@H](OC)[C@@H](C)C(=O)N[C@H](C)[C@@H](O)c1ccccc1)OC)N(C)C(=O)[C@@H](NC(=O)[C@@H](NC)C(C)C)C(C)C [MMAE] (H-[NMeV]V[Dil][Dolaproine]-X1)	–	–	–	–	–	–	IC50 (MCF7 [1]): 0.0777 nM; IC50 (MDA-MB-231): 0.168 nM; IC50 (HCT116 [2]): 0.108 nM; IC50 (HCC1806): 0.053 nM; IC50 (HCT116 [3]): 0.283 nM; IC50 (PC3): 0.00101 nM
B1	0.071	–	–	–	–	–	–
B2	0.413	–	–	–	–	–	ELISA (HuCDCP1-B (human)): 0.208 nM
B3	–	3.6	24.99	38.25	12.28	5.30	–
B4	–	3.65	32.01	37.12	11.15	–	IC50 (MCF7 [5]): ~200 nM
B5	0.034	–	–	–	–	–	–
B6	–	3.6	32.59	35.66	12.02	10.04	IC50 (MCF7 [5]): > 200 nM
B7	–	3.5	34.10	39.38	10.24	8.00	–
B8	0.092	–	–	–	–	–	–
B9	–	3.48	33.89	28.50	8.28	9.09	–
B10	–	3.2	29.966	37.81	7.324	1.741	–
B11	0.027	–	–	–	–	–	–
